{"source": "IntAct's records for PubMed 23481255", "parents": {"B1": {"name": "ADP-ribose glycohydrolase OARD1 (Homo sapiens), Q9Y530 (parent)", "chain": "MASSLNEDPEGSRITYVKGDLFACPKTDSLAHCISEDCRMGAGIAVLFKKKFGGVQELLNQQKKSGEVAVLKRDGRYIYYLITKKRASHKPTYENLQKSLEAMKSHCLKNGVTDLSMPRIGCGLDRLQWENVSAMIEEVFEATDIKITVYTL", "partner": "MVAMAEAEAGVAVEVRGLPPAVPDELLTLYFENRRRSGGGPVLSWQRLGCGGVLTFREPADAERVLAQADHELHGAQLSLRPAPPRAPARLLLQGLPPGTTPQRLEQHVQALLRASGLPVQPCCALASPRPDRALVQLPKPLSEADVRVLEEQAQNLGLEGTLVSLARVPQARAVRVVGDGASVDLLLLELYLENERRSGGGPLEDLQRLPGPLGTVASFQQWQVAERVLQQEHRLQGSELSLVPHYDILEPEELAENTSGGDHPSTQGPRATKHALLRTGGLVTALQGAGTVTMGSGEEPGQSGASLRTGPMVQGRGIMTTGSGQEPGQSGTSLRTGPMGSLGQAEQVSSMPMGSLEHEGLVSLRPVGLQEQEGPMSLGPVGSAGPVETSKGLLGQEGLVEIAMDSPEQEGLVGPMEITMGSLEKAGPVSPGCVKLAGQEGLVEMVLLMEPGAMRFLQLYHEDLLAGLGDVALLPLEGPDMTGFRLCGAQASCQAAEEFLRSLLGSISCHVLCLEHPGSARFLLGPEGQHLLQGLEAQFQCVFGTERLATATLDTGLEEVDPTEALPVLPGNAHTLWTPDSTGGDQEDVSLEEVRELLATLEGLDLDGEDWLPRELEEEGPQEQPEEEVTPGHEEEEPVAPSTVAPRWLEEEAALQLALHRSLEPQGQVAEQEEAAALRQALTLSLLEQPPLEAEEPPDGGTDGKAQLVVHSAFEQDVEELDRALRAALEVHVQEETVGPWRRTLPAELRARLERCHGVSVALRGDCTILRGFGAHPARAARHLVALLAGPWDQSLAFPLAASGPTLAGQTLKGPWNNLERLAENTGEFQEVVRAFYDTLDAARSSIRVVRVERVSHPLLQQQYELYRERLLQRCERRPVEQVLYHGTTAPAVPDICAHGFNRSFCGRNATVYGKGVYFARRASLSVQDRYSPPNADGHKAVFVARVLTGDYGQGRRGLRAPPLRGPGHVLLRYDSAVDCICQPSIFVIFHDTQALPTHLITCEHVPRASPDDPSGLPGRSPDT"}, "B2": {"name": "ADP-ribose glycohydrolase OARD1 (Homo sapiens), Q9Y530 (parent)", "chain": "B1 chain"}}}
{"variants_of": "B1", "details": "with par10_human PARP10, Q53GL7"}
{"variant": "K84A", "effect of a mutation on the interaction": "disrupting interaction"}
{"variants_of": "B1", "details": "with par10_human PARP10, Q53GL7", "remark": "another data set of the same source"}
{"variant": "D125A", "effect of a mutation on the interaction": "disrupting interaction"}
{"variants_of": "B2", "details": "with parp1_human PARP1, P09874"}
{"variant": "G123E", "effect of a mutation on the interaction": "disrupting interaction"}
{"variants_of": "B2", "details": "with parp1_human PARP1, P09874", "remark": "another data set of the same source"}
{"variant": "K84A", "effect of a mutation on the interaction": "disrupting interaction"}
{"variants_of": "B2", "details": "with parp1_human PARP1, P09874", "remark": "another data set of the same source"}
{"variant": "K84R", "effect of a mutation on the interaction": "disrupting interaction"}
{"variants_of": "B2", "details": "with parp1_human PARP1, P09874", "remark": "another data set of the same source"}
{"variant": "D125A", "effect of a mutation on the interaction": "disrupting interaction"}
{"variants_of": "B2", "details": "with parp1_human PARP1, P09874", "remark": "another data set of the same source"}
{"variant": "D125A", "effect of a mutation on the interaction": "increasing interaction"}
